The chains are these.
B1: Pro-(X)-BMP-9 [human] / itself (parent)
chain: KPLQSWGRGSAGGNAHSPLGVPGGGLPEHTFNLKMFLENVKVDFLRSLNLSGVPSQDKTRVEPPQYMIDLYNRYTSDKSTTPASNIVRSFSMEDAISITATEDFPFQKHILLFNISIPRHEQITRAELRLYVSCQNHVDPSHDLKGSVVIYDVLDGTDAWDSATETKTFLVSQDIQDEGWETLEVSSAVKRWVRSDSTKSKNKLEVTVESHRKGCDTLDISVPPGSRNLPFFVVFSNDHSSGTKETRLELREMISHEQESVLKKLSKDGSTEAGESSHEEDTDGHVAAGSTLAIEGRSSGAGSHCQKTSLRVNFEDIGWDSWIIAPKEYEAYECKGGCFFPLADDVTPTKHAIVQTLVHLKFPTKVGKACCVPTKLSPISVLYKDDMGVPTLKYHYEGMSVAECGCR

The text below walks through data of article doi:10.1101/2024.10.14.618187, “Molecular basis of interchain disulfide-bond formation in BMP-9 and BMP-10” (bioRxiv, 2024).

The variants in the assay derive from B1. The assay is described as follows: SDS-PAGE densitometry after IMAC purification. Particulars: with itself.
Turning to chain 1 K335R, the screen value amounted to 0.7.
For chain 1 K335R G367S, the screen value worked out at 3.24.
The figure for chain 1 G367S is 1.29.
